Results taken from paper PMC1852638.
Like-named read-outs stand apart in the source and are kept apart here.

Key:
[1] = biological target: myosin 5 heavy meromyosin (HMM) (UniProt Q99104); test: inhibition of actin-activated MgATPase
[2] = biological target: myosin 5 heavy meromyosin (HMM) (UniProt Q99104); test: inhibition of actin-activated MgATPase; remark: listed apart in the source

glutathione S-transferase (GST)-47 kDa GTD fusion protein, dimer (from UniProt Q99104 1-1853) (domain or fragment)
Ki [1]: 530 nM | Ki [2]: 750 nM
